Experiments:
amyloid β 1-40 peptide = assay: Degradation of amyloid β 1-40 peptide by Fc-Neprilysin and Neprilysin in buffer; type: biochemical; settings: enzyme 2.4 μg/ml, Aβ 1-40 300 nM, 2.5 hours at 37° C., buffer
Experimental: The assay is measuring the remaining amyloid β 1-40 peptide (Bachem) concentration following its incubation in the presence of Neprilysin (R&D Systems) or Fc-Neprilysin with or without Neprilysin inhibitor. 100 μl of reaction mixture containing amyloid β 1-40 peptide (final concentrations, 300, 30 or 3 nM) and/or Neprilysin (2.4 μg/ml), and/or Fc-Neprilysin construct (2.4 μg/ml), and/or Phosphoramidone (10 μM) was incubated in a round bottom 96-well polypropylene plate at 37° C. for 2.5 hours. Following incubation, 10 μl of reaction mixture was transferred into Thermo-Fast© 96-well PCR plate (Abgene, UK) containing 10 μl of Standard Diluent (Gyros AB). Amyloid β 1-40 concentration was determined using Gyrolab Workstation LIF system. Biotinylated anti-amyloid β antibodies (6E10; final concentration 50 μg/ml; Signet) were used as capturing antibodies and polyclonal anti-human amyloid β antibodies (44-348; Biosource) labeled with Alexa Fluor 647 dye (Molecular probes) were used as detection antibodies. Amyloid β 1-40 peptide concentration measurement performed according to the manufacturers protocol using Gyrolab Bioaffy™ Software Package Version 1.8 (Gyros AB). Amyloid β 1-40 peptide degradation by Neprilysin was calculated as a percentage of Amyloid β 1-40 peptide left after incubation in the presence of Neprilysin compared to the amyloid β 1-40 peptide concentration in the absence of Neprilysin.

[1] = system: amyloid β peptide 1-40 (Aβ40); assay: Ex-vivo degradation of Aβ40 in guinea pig plasma; type: biochemical; settings: 5 μg/ml, 4 hours, 37° C.
Experimental: Degradation of amyloid β peptide 1-40 (Aβ40) and amyloid β peptide 1-42 (Aβ42) by neprilysin was investigated using heparinized plasma from male Dunkin Hartley guinea pigs, weighing 250-300 g (HBLidkoping ka). Blood was withdrawn from anaesthetized guinea pigs by heart puncture. The blood were collected into prechilled heparin-plasma tubes and centrifuged for 10 min at 4° C. at 3000×g within 20 minutes of sampling. Plasma samples were transferred to pre-chilled polypropylene tubes and immediately frozen on dry ice and stored at −70° C. prior to use. The experiments were performed on a pool of plasma from seven guinea pigs. His-Fc-Nep (6 μg/ml or 208 μg/ml) or 5 μg/ml recombinant human Neprilysin (R&D systems) with corresponding vehicles (50 mM Tris-HCl, 150 mM NaCl pH 7.5 or 25 mM Tris-HCl, 0.1 M NaCl pH 8.0) were incubated with a pool of plasma in presence or absence of 10 μM phosphoramidon (BIOMOL) at 37° C. for 0 and 4 h. A final concentration of 4.7 mM EDTA was added into the tubes before the amount of Aβ40 and Aβ42 was analysed using a commercial ELISA kit obtained from Biosource (Aβ1-40) or Innogenetics (Aβ1-42).

[2] = system: amyloid β peptide 1-40 (Aβ40); assay: Degradation of Aβ40 in human plasma (Example 18); type: biochemical; settings: 5 μg/ml, 4 hours, 37° C.
Experimental: Blood from eight individuals (5 females and 3 males) were collected into pre-chilled heparin-plasma tubes at the healthcare centre (AstraZeneca) at two different time points. Plasma was prepared by centrifugation for 20 min at 4° C. at 2500×g within 30 minutes of sampling. Plasma samples were transferred to pre-chilled polypropylene tubes and immediately frozen and stored at −70° C. prior to use. His-Fc-Nep (6 μg/ml) or 5 μg/ml recombinant human Neprilysin (R&D systems) with corresponding vehicles (50 mM Tris-HCl, 150 mM NaCl pH 7.5 or 25 mM Tris-HCl, 0.1 M NaCl pH 8.0) in presence or absence of 10 μM phosphoramidon was incubated with a pool of plasma at 37° C. for 0 and 4 h. A final concentration of 4.7 mM EDTA was added into the tubes before the amount of Aβ40 was analysed using a commercial ELISA kit obtained from Biosource. His-Fc-Nep (6 μg/ml) and commercial human recombinant neprilysin (5 μg/ml) degraded Aβ40 with 33% and 70%, respectively, compared to vehicle after 4 hours incubation at 37° C. The Aβ40 levels were unaffected after addition of 10 μM phosphoramidon (FIG. 4).

[3] = Pharmacokinetics of Fc-Nep and commercial neprilysin, single i.v. dose (Example 20); type: in vivo; settings: mice, single i.v. dose 1 mg/kg
Experimental: The Fc-Nep fusion protein was developed to improve the pharmacokinetic entities of neprilysin with the specific aims to reduce clearance and improve half-life. To test this we have administrated a single i.v. dose of either 1 mg/kg commercial neprilysin or 1 alternatively 5 mg/kg in-house produced Fc-Nep to mice. At set times after dosing blood samples were drawn from the tail vein or by heart puncture at termination. Upon sampling into tubes containing EDTA the aliquots were put on ice. Plasma was prepared by centrifugation within 15 minutes of sampling (typically 1500 g at 4° C. for 10 min) and immediately frozen. Plasma concentrations of Fc-Nep and neprilysin were determined via immunoassays using either anti-Nep for commercial neprilysin or anti-human IgG for Fc-Nep as capture antibodies while both substances were detected via an anti-Nep antibody. Pharmacokinetic parameters are calculated using a software package (WinNonlin, Pharsight Corporation, USA) and in this example experiment the calculated half-life had increased from about 5 minutes for Nep to about 20 hours for Fc-Nep.

[4] = Pharmacokinetics of Fc-Nep and in-house produced Neprilysin, single i.v. dose (Example 27); type: in vivo; settings: mice, single i.v. dose 10 or 50 nmol enzyme/kg
Experimental: The Fc-Nep fusion protein was developed to improve the pharmacokinetic entities of neprilysin with the specific aims to reduce clearance and improve half-life. To test this we have administrated a single i.v. dose of 10 or 50 nmol enzyme/kg body weight neprilysin (Nep) or Fc-Nep (1 and 5 mg/kg) to mice. At set times the dose blood samples were drawn from the tail vein or by heart puncture at termination. Upon sampling into tubes containing EDTA the aliquots were put on ice. Plasma was prepared by centrifugation within 15 minutes of sampling (typically 1500 g at 4° C. for 10 min) and immediately frozen. Plasma concentrations of Nep and Fc-Nep were determined via immunoassays using either anti-Nep for Nep or anti-human IgG for Fc-Nep as capture antibodies while both substances were detected via an anti-Nep antibody. Pharmacokinetic parameters are calculated using a software package (WinNonlin, Pharsight Corporation, USA) and in this example experiment the calculated half-life had increased from about 1 day for Nep to about 2.5 weeks for Fc-Nep.

Molecule	Amyloid β 1-40 peptide degraded (amyloid β 1-40 peptide) [%]	Aβ40 degraded compared to vehicle [1] [%]	Aβ40 degraded compared to vehicle [2] [%]	calculated half-life [3]	calculated half-life [4]
Recombinant human Neprilysin: commercially available Recombinant Human Neprilysin (R&D Systems), positive control (protein) YDDGICKSSDCIKSAARLIQNMDATTEPCTDFFKYACGGWLKRNVIPETSSRYGNFDILRDELEVVLKDVLQEPKTEDIVAVQKAKALYRSCINESAIDSRGGEPLLKLLPDIYGWPVATENWEQKYGASWTAEKAIAQLNSKYGKKVLINLFVGTDDKNSVNHVIHIDQPRLGLPSRDYYECTGIYKEACTAYVDFMISVARLIRQEERLPIDENQLALEMNKVMELEKEIANATAKPEDRNDPMLLYNKMTLAQIQNNFSLEINGKPFSWLNFTNEIMSTVNISITNEEDVVVYAPEYLTKLKPILTKYSARDLQNLMSWRFIMDLVSSLSRTYKESRNAFRKALYGTTSETATWRRCANYVNGNMENAVGRLYVEAAFAGESKHVVEDLIAQIREVFIQTLDDLTWMDAETKKRAEEKALAIKERIGYPDDIVSNDNKLNNEYLELNYKEDEYFENIIQNLKFSQSKQLKKLREKVDKDEWISGAAVVNAFYSSGRNQIVFPAGILQPPFFSAQQSNSLNYGGIGMVIGHEITHGFDDNGRNFNKDGDLVDWWTQQSASNFKEQSQCMVYQYGNFSWDLAGGQHLNGINTLGENIADNGGLGQAYRAYQNYIKKNGEEKLLPGLDLNHKQLFFLNFAQVWCGTYRPEYAVNSIKTDVHSPGNFRIIGTLQNSAEFSEAFHCRKNSYMNPEKKCRVW	64	49	70	about 5 minutes	
Nep: in-house produced Neprilysin (extra-cellular domain only), without Fc (protein, UniProt P08473 52-750, looked up, extracellular domain, in-house produced Neprilysin (extra-cellular domain only), without Fc) extracellular domain: YDDGICKSSDCIKSAARLIQNMDATTEPCTDFFKYACGGWLKRNVIPETSSRYGNFDILRDELEVVLKDVLQEPKTEDIVAVQKAKALYRSCINESAIDSRGGEPLLKLLPDIYGWPVATENWEQKYGASWTAEKAIAQLNSKYGKKVLINLFVGTDDKNSVNHVIHIDQPRLGLPSRDYYECTGIYKEACTAYVDFMISVARLIRQEERLPIDENQLALEMNKVMELEKEIANATAKPEDRNDPMLLYNKMTLAQIQNNFSLEINGKPFSWLNFTNEIMSTVNISITNEEDVVVYAPEYLTKLKPILTKYSARDLQNLMSWRFIMDLVSSLSRTYKESRNAFRKALYGTTSETATWRRCANYVNGNMENAVGRLYVEAAFAGESKHVVEDLIAQIREVFIQTLDDLTWMDAETKKRAEEKALAIKERIGYPDDIVSNDNKLNNEYLELNYKEDEYFENIIQNLKFSQSKQLKKLREKVDKDEWISGAAVVNAFYSSGRNQIVFPAGILQPPFFSAQQSNSLNYGGIGMVIGHEITHGFDDNGRNFNKDGDLVDWWTQQSASNFKEQSQCMVYQYGNFSWDLAGGQHLNGINTLGENIADNGGLGQAYRAYQNYIKKNGEEKLLPGLDLNHKQLFFLNFAQVWCGTYRPEYAVNSIKTDVHSPGNFRIIGTLQNSAEFSEAFHCRKNSYMNPEKKCRVW					about 1 day

— US20080242590A1, “New Method 706” (ASTRAZENECA AB, priority 2007, published 2008)
